Paper doi:10.1101/2021.10.17.464694 (bioRxiv, 2021)

Biological target: K63-linked diubiquitin (UniProt P0CG48 1-76; P0CG48 1-76, K48R | K63R | D77 extension)
Assay: ITC

B1: full-length ASCC2 (natural protein)
chain: MPALPLDQLQITHKDPKTGKLRTSPALHPEQKADRYFVLYKPPPKDNIPALVEEYLERATFVANDLDWLLALPHDKFWCQVIFDETLQKCLDSYLRYVPRKFDEGVASAPEVVDMQKRLHRSVFLTFLRMSTHKESKDHFISPSAFGEILYNNFLFDIPKILDLCVLFGKGNSPLLQKMIGNIFTQQPSYYSDLDETLPTILQVFSNILQHCGLQGDGANTTPQKLEERGRLTPSDMPLLELKDIVLYLCDTCTTLWAFLDIFPLACQTFQKHDFCYRLASFYEAAIPEMESAIKKRRLEDSKLLGDLWQRLSHSRKKLMEIFHIILNQICLLPILESSCDNIQGFIEEFLQIFSSLLQEKRFLRDYDALFPVAEDISLLQQASSVLDETRTAYILQAVESAWEGVDRRKATDAKDPSVIEEPNGEPNGVTVTAEAVSQASSHPENSEEEECMGAAAAVGPAMCGVELDSLISQVKDLLPDLGEGFILACLEYYHYDPEQVINNILEERLAPTLSQLDRNLDREMKPDPTPLLTSRHNVFQNDEFDVFSRDSVDLSRVHKGKSTRKEENTRSLLNDKRAVAAQRQRYEQYSVVVEEVPLQPGESLPYHSVYYEDEYDDTYDGNQVGANDADSDDELISRRPFTIPQVLRTKVPREGQEEDDDDEEDDADEEAPKPDHFVQDPAVLREKAEARRMAFLAKKGYRHDSSTAVAGSPRGHGQSRETTQERRKKEANKATRANHNRRTMADRKRSKGMIPS
stoichiometry N: 1 ASCC2 per K63Ub2
